Test results taken from US20140274782A1 (Stanford University, published 2014).

Columns and labels:
Assay in all cases: ProtoArray, GST-treated control array;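 further: human protein microarray (about 9500 recombinant proteins) incubated overnight with GST alone plus SAM cofactor as the negative control for G9a SET domain methylation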
[1] = target: T1, GNPTAB-N-acetylglucosamine-1-phosphate transferase, alpha and beta subunits (GNPTAB) (human, UniProt Q3T906 1-1256, limits assumed)
T1 sequence (looked up): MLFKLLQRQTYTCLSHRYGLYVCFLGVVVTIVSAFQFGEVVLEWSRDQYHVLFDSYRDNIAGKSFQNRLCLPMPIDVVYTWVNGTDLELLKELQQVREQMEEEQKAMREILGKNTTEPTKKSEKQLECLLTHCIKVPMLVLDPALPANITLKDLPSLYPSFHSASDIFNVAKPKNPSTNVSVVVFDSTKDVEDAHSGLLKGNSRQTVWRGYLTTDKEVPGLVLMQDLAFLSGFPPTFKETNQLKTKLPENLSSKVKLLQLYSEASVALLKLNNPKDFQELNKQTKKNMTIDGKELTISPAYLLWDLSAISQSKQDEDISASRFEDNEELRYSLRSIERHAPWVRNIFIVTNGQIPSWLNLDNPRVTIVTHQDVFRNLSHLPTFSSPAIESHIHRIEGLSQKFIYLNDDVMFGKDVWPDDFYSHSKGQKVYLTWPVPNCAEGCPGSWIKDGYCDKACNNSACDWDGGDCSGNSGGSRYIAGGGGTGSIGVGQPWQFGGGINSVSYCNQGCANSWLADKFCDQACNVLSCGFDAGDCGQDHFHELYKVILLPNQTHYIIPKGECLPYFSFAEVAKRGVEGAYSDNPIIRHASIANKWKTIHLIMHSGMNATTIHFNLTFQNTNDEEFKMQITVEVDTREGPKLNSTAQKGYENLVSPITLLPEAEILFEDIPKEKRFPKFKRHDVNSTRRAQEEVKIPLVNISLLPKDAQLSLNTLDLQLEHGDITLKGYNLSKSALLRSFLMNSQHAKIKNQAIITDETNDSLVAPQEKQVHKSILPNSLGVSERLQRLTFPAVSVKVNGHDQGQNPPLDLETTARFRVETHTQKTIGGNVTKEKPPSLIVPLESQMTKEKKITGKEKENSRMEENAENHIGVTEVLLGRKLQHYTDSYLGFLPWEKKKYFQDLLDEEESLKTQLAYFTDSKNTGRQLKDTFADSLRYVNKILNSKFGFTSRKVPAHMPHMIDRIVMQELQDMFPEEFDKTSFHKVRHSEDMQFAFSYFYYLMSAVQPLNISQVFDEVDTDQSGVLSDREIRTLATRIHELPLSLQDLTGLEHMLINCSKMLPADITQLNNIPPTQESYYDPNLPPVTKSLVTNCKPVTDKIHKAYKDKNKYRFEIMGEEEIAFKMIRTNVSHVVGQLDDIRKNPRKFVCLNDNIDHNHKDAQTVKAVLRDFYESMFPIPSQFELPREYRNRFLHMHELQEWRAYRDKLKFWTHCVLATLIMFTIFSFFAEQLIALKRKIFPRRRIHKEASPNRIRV

[2] = target: T2, GAL-galanin prepropeptide (GAL) (human, UniProt P22466 1-123, limits assumed)
T2 sequence (looked up): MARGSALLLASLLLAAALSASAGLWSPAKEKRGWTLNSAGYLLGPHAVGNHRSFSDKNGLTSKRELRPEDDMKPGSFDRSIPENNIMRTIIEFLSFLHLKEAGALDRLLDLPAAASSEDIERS

[3] = target: T3, TGDS-TDP-glucose 4,6-dehydratase (TGDS) (human, UniProt O95455 1-350)
T3 sequence (looked up): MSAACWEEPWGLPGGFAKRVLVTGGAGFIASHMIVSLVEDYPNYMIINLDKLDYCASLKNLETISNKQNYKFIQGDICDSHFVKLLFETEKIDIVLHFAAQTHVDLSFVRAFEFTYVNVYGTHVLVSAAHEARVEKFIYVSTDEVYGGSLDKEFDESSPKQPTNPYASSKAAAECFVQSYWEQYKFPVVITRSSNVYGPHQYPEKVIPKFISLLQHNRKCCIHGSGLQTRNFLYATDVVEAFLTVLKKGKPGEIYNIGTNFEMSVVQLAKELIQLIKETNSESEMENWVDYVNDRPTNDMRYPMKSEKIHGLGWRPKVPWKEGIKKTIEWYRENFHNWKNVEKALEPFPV

[4] = target: T4, MAGEH1-melanoma antigen family H, 1 (MAGEH1) (human, UniProt Q9H213 1-219)
T4 sequence (looked up): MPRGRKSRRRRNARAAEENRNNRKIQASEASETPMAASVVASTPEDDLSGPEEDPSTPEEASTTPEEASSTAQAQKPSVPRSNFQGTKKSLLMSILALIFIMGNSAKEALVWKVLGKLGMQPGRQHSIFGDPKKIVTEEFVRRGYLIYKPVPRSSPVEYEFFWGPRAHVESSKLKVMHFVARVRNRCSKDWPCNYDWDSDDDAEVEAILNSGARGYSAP

[5] = target: CDC2-cell division cycle 2, G1 to S and G2 to M (CDC2), transcript variant 1 (human, UniProt P06493 1-297)
Chain of CDC2-cell division cycle 2, G1 to S and G2 to M (CDC2), transcript variant 1 (P06493 whole entry, change not shown): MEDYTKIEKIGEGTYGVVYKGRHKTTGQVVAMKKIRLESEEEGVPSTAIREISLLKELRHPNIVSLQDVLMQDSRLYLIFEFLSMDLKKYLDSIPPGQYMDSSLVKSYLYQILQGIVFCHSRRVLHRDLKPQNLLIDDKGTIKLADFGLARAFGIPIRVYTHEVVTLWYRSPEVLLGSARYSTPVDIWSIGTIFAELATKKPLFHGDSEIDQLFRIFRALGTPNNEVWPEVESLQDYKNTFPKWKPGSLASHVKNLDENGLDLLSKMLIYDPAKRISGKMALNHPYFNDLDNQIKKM

[6] = target: T5, CCL24-C-C motif chemokine 24 (human, UniProt O00175 27-119, limits assumed)
T5 sequence (looked up): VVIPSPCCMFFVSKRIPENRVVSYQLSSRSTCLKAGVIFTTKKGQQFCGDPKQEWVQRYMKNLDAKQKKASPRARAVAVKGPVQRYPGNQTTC

[7] = target: T6, RAB7B-RAB7B, member RAS oncogene family (RAB7B) (human, UniProt Q96AH8 1-199)
T6 sequence (looked up): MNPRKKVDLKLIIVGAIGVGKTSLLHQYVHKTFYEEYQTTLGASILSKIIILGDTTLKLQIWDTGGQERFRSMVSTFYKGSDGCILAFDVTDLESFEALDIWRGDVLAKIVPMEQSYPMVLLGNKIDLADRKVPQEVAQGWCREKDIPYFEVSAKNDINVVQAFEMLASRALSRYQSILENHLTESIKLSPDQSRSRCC

[8] = target: T7, SNFT-Jun dimerization protein p21SNFT (SNFT) (human, UniProt Q9NR55 1-127)
T7 sequence (looked up): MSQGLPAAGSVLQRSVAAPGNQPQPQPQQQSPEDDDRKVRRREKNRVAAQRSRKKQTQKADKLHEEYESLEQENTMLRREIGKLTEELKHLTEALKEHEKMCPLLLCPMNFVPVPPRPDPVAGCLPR

[9] = target: FTH1-ferritin, heavy polypeptide 1 (FTH1) (human, UniProt P02794 1-183)
Chain of FTH1-ferritin, heavy polypeptide 1 (FTH1) (P02794 whole entry): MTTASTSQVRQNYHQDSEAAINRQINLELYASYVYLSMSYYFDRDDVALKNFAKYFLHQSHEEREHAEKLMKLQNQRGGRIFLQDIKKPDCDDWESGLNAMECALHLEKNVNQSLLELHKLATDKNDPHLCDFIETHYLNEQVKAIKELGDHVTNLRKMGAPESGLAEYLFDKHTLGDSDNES

- GST Average SNR [1]: 1.15
- GST Average SNR [2]: -0.0625
- GST Average SNR [3]: 1.15
- GST Average SNR [4]: 1.11
- GST Average SNR [5]: -0.696
- GST Average SNR [6]: 0.109
- GST Average SNR [7]: -0.309
- GST Average SNR [8]: 1.05
- GST Average SNR [9]: -0.802
B1: 3× Flag-3×MBT (designed binder)
chain: EEWSSSQPATGEKKECWSWESYLEEQKAITAPVSLFQDSQAVTHNKNGFKLGMKLEGIDPQHPSMYFILTVAEVCGYRLRLHFDGYSECHDFWVNANSPDIHPAGWFEKTGHKLQPPKGYKEEEFSWSQYLRSTRAQAAPKHLFVSQSHSPPPLGFQVGMKLEAVDRMNPSLVCVASVTDVVDSRFLVHFDNWDDTYDYWCDPSSPYIHPVGWCQKQGKPLTPPQDYPDPDNFCWEKYLEETGASAVPTWAFKVRPPHSFLVNMKLEAVDRRNPALIRVASVEDVEDHRIKIHFDGWSHGYDFWIDADHPDIHPAGWCSKTGHPLQPPLGPREPSSASPGG
notes: also called Flag-tagged 3×MBT; 3xFlag-3xMBT; not shown: made by PreScission cleavage of GST-3× Flag-3×MBT
